Measured values from patent US20210324057A1.

What was measured:
Assay in all cases: GST pull-down, LC-MS/MS; score of protein identification
[1] = target: Electron transfer flavoprotein, α subunit
ATP synthase, β chain = target: ATP synthase, β chain
ATP synthase, O subunit = target: ATP synthase, O subunit
Sequence of ATP synthase, O subunit (Q9DB20 24-213): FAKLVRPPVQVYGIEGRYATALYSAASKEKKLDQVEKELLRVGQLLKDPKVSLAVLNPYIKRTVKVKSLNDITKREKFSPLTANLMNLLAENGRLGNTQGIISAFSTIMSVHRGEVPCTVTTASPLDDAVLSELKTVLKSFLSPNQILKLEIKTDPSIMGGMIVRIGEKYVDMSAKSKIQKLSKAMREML

Sequence of Electron transfer flavoprotein, α subunit (Q99LC5 20-333): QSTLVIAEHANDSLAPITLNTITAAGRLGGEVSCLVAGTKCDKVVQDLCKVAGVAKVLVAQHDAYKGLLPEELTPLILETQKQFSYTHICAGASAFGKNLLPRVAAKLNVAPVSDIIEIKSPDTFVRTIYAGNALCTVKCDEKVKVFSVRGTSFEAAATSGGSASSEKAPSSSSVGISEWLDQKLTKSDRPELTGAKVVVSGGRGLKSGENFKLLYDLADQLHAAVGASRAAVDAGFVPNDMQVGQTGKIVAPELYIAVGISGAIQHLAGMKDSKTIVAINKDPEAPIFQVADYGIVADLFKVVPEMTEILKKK
Sequence of ATP synthase, β chain (P56480 47-529): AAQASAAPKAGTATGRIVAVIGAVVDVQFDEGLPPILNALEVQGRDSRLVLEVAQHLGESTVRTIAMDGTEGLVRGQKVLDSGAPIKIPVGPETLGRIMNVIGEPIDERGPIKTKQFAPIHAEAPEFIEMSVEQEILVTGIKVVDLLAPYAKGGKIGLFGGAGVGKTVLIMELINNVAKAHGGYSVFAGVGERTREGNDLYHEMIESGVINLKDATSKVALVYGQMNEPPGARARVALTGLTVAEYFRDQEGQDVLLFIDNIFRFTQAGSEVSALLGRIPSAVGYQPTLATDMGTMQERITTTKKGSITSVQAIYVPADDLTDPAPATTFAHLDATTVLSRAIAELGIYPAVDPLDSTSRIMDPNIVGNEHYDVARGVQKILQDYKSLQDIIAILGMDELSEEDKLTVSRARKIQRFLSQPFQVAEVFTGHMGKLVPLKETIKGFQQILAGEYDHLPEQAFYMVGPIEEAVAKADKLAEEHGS

Unused Score [1]: 11.6
Unused Score (ATP synthase, β chain): 5.94
Unused Score (ATP synthase, O subunit): 8.44
Substance: GST-LRRC8A (fusion protein comprised of the leucine rich C-terminus of LRRC8A and GST)
